Measured values reported in US20160311863A1 (Affibody, published 2016).
Starred links: 1 amine or outer side, 2 acyl side, 3 side chain; linkers in the order of their positions; H or OH if unused. Positions of bridges follow the written chain, without caps; N, C: chain ends. No end group written: not given here. mXylylene = c1cc(C[*:1])cc(C[*:2])c1; oXylylene = c1ccc(C[*:2])c(C[*:1])c1

Key:
human serum albumin [1] = target: T1, human serum albumin (human, UniProt P02768 25-609); assay: SPR (ProteOn XPR36), HSA immobilized, KD=kd/ka
T1 construct: Immobilized on the sensor chip (2500 RU in screening; 1100-1600 RU in kinetics); also called HSA
Method: Biosensor binding analyses were performed on a ProteOn XPR36 instrument (Bio-Rad) at 25° C. using PBST (150 mM NaCl, 8 mM Na₂HPO₄, 2 mM NaH₂PO₄, 0.005% Tween20, pH 7.4) as running buffer at a flow rate of 50 μl min⁻¹. An injection of 30 μl of 20 mM HCl at a flow rate of 100 μl min⁻¹ was used for chip regeneration. In a screening experiment, the binding of all polypeptide variants to human serum albumin (HSA) was investigated. The proteins were diluted to 50 nM in running buffer and injected over a chip surface with 2500 RU of immobilized HSA. The association was studied for 300 s and the dissociation was followed for 7200 s (2 h). For data analysis, all samples were double referenced; the signal from a blank surface was first subtracted from the signal from the respective protein, and secondly the signal from an injection of PBST (running buffer) over the HSA surface was subtracted. […]
(§1) The kinetic parameters of the binding of PEP18049_CL and the reference protein PEP07830 to HSA were obtained from fitting the obtained sensorgrams to a 1:1 Langmuir binding model using the ProteOn Manager software version 3.1.0.6 (Bio-Rad). The average association rate constant (kₐ (M⁻¹ s⁻¹) and dissociation rate constant (kd (s⁻¹)) with standard deviation were calculated. From the average kₐ and the kd the dissociation equilibrium constant (KD (M)) was calculated (KD=kd/kₐ).

human serum albumin [2] = target: T1, human serum albumin; assay: SPR (ProteOn XPR36), HSA immobilized, 1:1 Langmuir fit, triplicate
Method: (§2) Biosensor binding analyses were performed on a ProteOn XPR36 instrument (Bio-Rad) at 25° C. using PBST (150 mM NaCl, 8 mM Na₂HPO₄, 2 mM NaH₂PO₄, 0.005% Tween20, pH 7.4) as running buffer at a flow rate of 50 μl min⁻¹. An injection of 30 μl of 20 mM HCl at a flow rate of 100 μl min⁻¹ was used for chip regeneration. In a screening experiment, the binding of all polypeptide variants to human serum albumin (HSA) was investigated. The proteins were diluted to 50 nM in running buffer and injected over a chip surface with 2500 RU of immobilized HSA. The association was studied for 300 s and the dissociation was followed for 7200 s (2 h). For data analysis, all samples were double referenced; the signal from a blank surface was first subtracted from the signal from the respective protein, and secondly the signal from an injection of PBST (running buffer) over the HSA surface was subtracted.
The HSA binding kinetics of PEP18049_CL and the reference protein PEP07830 were further studied using a sensor chip with HSA immobilized on three different surfaces to between 1100 RU and 1600 RU. The proteins were diluted in running buffer (0.8, 1.6, 3.3, and 6.6 nM for PEP18049_CL and 1.0, 2.0, 4.0 and 8.0 nM for PEP07830) and injected over the three HSA surfaces and thus giving binding curves in triplicate. The association time was 300 s and the dissociation was followed for 36 000 s (10 h).
as §1

human serum albumin [3] = target: T1, human serum albumin; assay: SPR (ProteOn) screening, 50 nM over immobilized HSA
Method: as §2

human serum albumin [4] = target: T1, human serum albumin; assay: SPR (ProteOn XPR36), polypeptide injected over immobilized HSA
Method: as §2

B1: PEP18049_CL (designed binder)
chain: LAEAKEAANAELDSYGCSDFYKRLIDKAKTVEGVEALKDAILAAKP
modifications: not fully specified; N-terminal leucine capped with acetic anhydride (acetylated); chloroacetylated Lys45 joined to the thiol of Cys17 by a thioether bond (intramolecular crosslink Cys17-Lys45); synthesised on Rink Amide resin
notes: also called crosslinked PEP18049
Binder B1 has a Kd (human serum albumin [1]) of 0.024 nM, a koff (human serum albumin [2]) of 1.5e-05 s⁻¹ and a kon (human serum albumin [2]) of 620000 M⁻¹ s⁻¹.

B2: PEP14788_CL_B (designed binder)
chain: LAEAKEAANAELDSYGCSDFYKRLIDKAKTVEGVEALKDAILAACP-NH2
modifications: linker 17-45 via mXylylene
notes: Chemically synthesised Cys-Cys crosslinked variant; also called PEP14788 crosslinked with linker B (m-xylylene dibromide)
B2: binds (human serum albumin [3]).

B3: PEP14788_CL_E (designed binder)
chain: LAEAKEAANAELDSYGCSDFYKRLIDKAKTVEGVEALKDAILAACP-NH2
modifications: linker 17-45 via 2,6‑bis(bromomethyl)pyridine
notes: Chemically synthesised Cys-Cys crosslinked variant; also called PEP14788 crosslinked with linker E (2,6-bis(bromomethyl)pyridine)
B3: binds (human serum albumin [3]).

B4: PEP18052_CL (designed binder)
chain: LAEAKEAANAELDSYGCSDFYKRLIDKCKTVEGVEALKDAILAAKP
modifications: not fully specified; two thioether crosslinks between chloroacetylated lysines and cysteines: Lys5-Cys28 and Cys17-Lys45; synthesised on Rink Amide resin
notes: Control, double crosslinked variant; the expected mass was found in two HPLC peaks that behaved alike; also called crosslinked PEP18052
B4: no binding (tested: 50 nM) (human serum albumin [4]).

B5: PEP18051_CL (designed binder)
chain: CAEAKEAANAELDSYGVSDFYKRLIDKAKTVEGVEALKDAILAALP
modifications: not fully specified; chloroacetylated Lys29 joined to the thiol of Cys1 by a thioether bond (intramolecular crosslink Cys1-Lys29); synthesised on Rink Amide resin
notes: Control crosslinked variant; also called crosslinked PEP18051
B5: binds (human serum albumin [3]).

B6: PEP18050_CL (designed binder)
chain: LAEAKEAANAELDSYGVSDFYKRLIDKCKTVEGVEALKDAILAALP
modifications: not fully specified; chloroacetylated Lys5 joined to the thiol of Cys28 by a thioether bond (intramolecular crosslink Lys5-Cys28); synthesised on Rink Amide resin
notes: Control crosslinked variant; also called crosslinked PEP18050
B6: no binding (tested: 50 nM) (human serum albumin [4]).

B7: PEP14788_CL_A (designed binder)
chain: LAEAKEAANAELDSYGCSDFYKRLIDKAKTVEGVEALKDAILAACP-NH2
modifications: linker 17-45 via oXylylene
notes: Chemically synthesised Cys-Cys crosslinked variant; also called PEP14788 crosslinked with linker A (o-xylylene dibromide)
B7: binds (human serum albumin [3]).

B8: PEP07830 (designed binder)
chain: LAEAKEAANAELDSYGVSDFYKRLIDKAKTVEGVEALKDAILAALP-NH2
notes: Linear (non-crosslinked) control, made by solid phase peptide synthesis
Work on B8 yielded a Kd (human serum albumin [1]) of 0.021 nM, a koff (human serum albumin [2]) of 4.1e-06 s⁻¹ and a kon (human serum albumin [2]) of 190000 M⁻¹ s⁻¹.

B9: PEP14789_CL_A (designed binder)
chain: GSSLAEAKEAANAELDSYGCSDFYKRLIDKAKTVEGVEALKDAILAACP
modifications: linker 20-48 via oXylylene
notes: Recombinantly produced in E. coli; same as PEP14788 but with an N-terminal GSS (expressed with an MGSS extension); The crosslink positions are printed as Cys17-Cys45, probably counted without the GSS; also called PEP14789 crosslinked with linker A (o-xylylene dibromide)
B9: binds (human serum albumin [3]).

B10: PEP14789_CL_B (designed binder)
chain: GSSLAEAKEAANAELDSYGCSDFYKRLIDKAKTVEGVEALKDAILAACP
modifications: linker 20-48 via mXylylene
notes: Recombinantly produced in E. coli; same as PEP14788 but with an N-terminal GSS (expressed with an MGSS extension); The crosslink positions are printed as Cys17-Cys45, probably counted without the GSS; also called PEP14789 crosslinked with linker B (m-xylylene dibromide)
B10: binds (human serum albumin [3]).
